Where a chain is given by its changes, count along the chain named.
Target: T1, extracellular domain of human CD79b (human, UniProt P40259 29-159)
T1 construct: also called huCD79becd; huCD79b-ecd
T1 sequence: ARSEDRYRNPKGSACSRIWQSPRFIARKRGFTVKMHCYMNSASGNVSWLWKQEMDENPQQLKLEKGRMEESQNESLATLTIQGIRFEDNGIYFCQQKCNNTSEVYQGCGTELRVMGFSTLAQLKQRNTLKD
Experiment: phage selection, Fab on phage, plate-bound huCD79becd

B1: huMA79b graft variant SEQ ID NO: 17 (Fab, name in Kabat numbering, V domains shown)
VH: EVQLVESGGGLVQPGGSLRLSCAASGYTFSSYWIEWVRQAPGKGLEWVGEILPGGGDTNYNEIFKGRFTISADTSKNTAYLQMNSLRAEDTAVYYCTRRVPVYFDYWGQGTLVTVSS
VL: DIQMTQSPSSLSASVGDRVTITCKASKSVDYDGDSFLNWYQQKPGKAPKLLIYAASNLESGVPSRFSGSGSGTDFTLTISSLQPEDFATYYCQQSNEDPLTFGQGTKVEIKR
notes: Fab on phage; rest as huMA79b graft; also called SPL-2 mutation
binding result: binds

B2: huMA79b graft variant SEQ ID NO: 63 (Fab, name in Kabat numbering, V domains shown)
VH: B1 VH with S30K, S31K
VL: B1 VL with K27Q
notes: Fab on phage; rest as huMA79b graft
binding result: binds

B3: huMA79b graft variant SEQ ID NO: 35 (Fab, name in Kabat numbering, V domains shown)
VH: B1 VH
VL: B1 VL with K27Q, L58R, E59K
notes: as for B2
binding result: binds

B4: huMA79b graft variant SEQ ID NO: 72 (Fab, name in Kabat numbering, V domains shown)
VH: B1 VH with S30R, S31R, E35N
VL: B1 VL with K27Q
notes: as for B2
binding result: binds

B5: huMA79b graft variant SEQ ID NO: 79 (Fab, name in Kabat numbering, V domains shown)
VH: B1 VH with T28P, S30R, E35S
VL: B1 VL with K27Q
notes: as for B2
binding result: binds

B6: huMA79b graft variant SEQ ID NO: 31 (Fab, name in Kabat numbering, V domains shown)
VH: B1 VH
VL: B1 VL with K27Q, S56R, N57K, E59G
notes: Fab on phage; rest as huMA79b graft; also called L2-38 mutation
binding result: binds

B7: huMA79b graft variant SEQ ID NO: 21 (Fab, name in Kabat numbering, V domains shown)
VH: B1 VH
VL: B1 VL with K27Q, E97K
notes: as for B2
binding result: binds

B8: huMA79b graft variant SEQ ID NO: 71 (Fab, name in Kabat numbering, V domains shown)
VH: B1 VH with S31G, E35N
VL: B1 VL with K27Q
notes: as for B2
binding result: binds

B9: huMA79b graft variant SEQ ID NO: 70 (Fab, name in Kabat numbering, V domains shown)
VH: B1 VH with S30T
VL: B1 VL with K27Q
notes: as for B2
binding result: binds

B10: huMA79b graft variant SEQ ID NO: 66 (Fab, name in Kabat numbering, V domains shown)
VH: B1 VH with T28P, F29V, S30G, S31R, E35S
VL: B1 VL with K27Q
notes: as for B2
binding result: binds

B11: huMA79b graft variant SEQ ID NO: 27 (Fab, name in Kabat numbering, V domains shown)
VH: B1 VH
VL: B1 VL with K27Q, S56R, N57K, E59K
notes: as for B2
binding result: binds

B12: huMA79b graft variant SEQ ID NO: 18 (Fab, name in Kabat numbering, V domains shown)
VH: B1 VH
VL: B1 VL with K27Q, L58R
notes: as for B2
binding result: binds

B13: huMA79b graft variant SEQ ID NO: 53 (Fab, name in Kabat numbering, V domains shown)
VH: B1 VH
VL: B1 VL with K27Q, Q93D, S95R, E97A
notes: as for B2
binding result: binds

B14: huMA79b graft variant SEQ ID NO: 55 (Fab, name in Kabat numbering, V domains shown)
VH: B1 VH with T28P, S30R, E35Q
VL: B1 VL with K27Q
notes: as for B2
binding result: binds

B15: huMA79b graft variant SEQ ID NO: 77 (Fab, name in Kabat numbering, V domains shown)
VH: B1 VH with T28P, S30T, S31R
VL: B1 VL with K27Q
notes: as for B2
binding result: binds

B16: huMA79b graft variant SEQ ID NO: 28 (Fab, name in Kabat numbering, V domains shown)
VH: B1 VH
VL: B1 VL with K27Q, S56R, N57K, E59A
notes: as for B2
binding result: binds

B17: huMA79b graft variant SEQ ID NO: 24 (Fab, name in Kabat numbering, V domains shown)
VH: B1 VH
VL: B1 VL with K27Q, S56R, N57K, E59G, S60N
notes: as for B2
binding result: binds

B18: huMA79b graft variant SEQ ID NO: 56 (Fab, name in Kabat numbering, V domains shown)
VH: B1 VH with T28P, S30T, E35N
VL: B1 VL with K27Q
notes: as for B2
binding result: binds

B19: huMA79b graft variant SEQ ID NO: 50 (Fab, name in Kabat numbering, V domains shown)
VH: B1 VH
VL: B1 VL with K27Q, E97L
notes: as for B2
binding result: binds

B20: huMA79b graft variant SEQ ID NO: 23 (Fab, name in Kabat numbering, V domains shown)
VH: B1 VH
VL: B1 VL with K27Q, N57R
notes: as for B2
binding result: binds

B21: huMA79b graft variant SEQ ID NO: 64 (Fab, name in Kabat numbering, V domains shown)
VH: B1 VH with T28P, S30T, E35Q
VL: B1 VL with K27Q
notes: as for B2
binding result: binds

B22: huMA79b graft variant SEQ ID NO: 26 (Fab, name in Kabat numbering, V domains shown)
VH: B1 VH
VL: B1 VL with K27Q, S56R, N57Y, E59K, S60R
notes: Fab on phage; rest as huMA79b graft; also called L2-29 mutation
binding result: binds

B23: huMA79b graft variant SEQ ID NO: 58 (Fab, name in Kabat numbering, V domains shown)
VH: B1 VH with S30N, S31R, E35N
VL: B1 VL with K27Q
notes: as for B2
binding result: binds

B24: huMA79b graft variant SEQ ID NO: 52 (Fab, name in Kabat numbering, V domains shown)
VH: B1 VH
VL: B1 VL with K27Q, Q94P, S95D, D98A, L100R
notes: as for B2
binding result: binds

B25: huMA79b graft variant SEQ ID NO: 65 (Fab, name in Kabat numbering, V domains shown)
VH: B1 VH with T28P, S30R, S31R
VL: B1 VL with K27Q
notes: as for B2
binding result: binds

B26: huMA79b graft variant SEQ ID NO: 68 (Fab, name in Kabat numbering, V domains shown)
VH: B1 VH with T28G, S30T, E35S
VL: B1 VL with K27Q
notes: as for B2
binding result: binds

B27: huMA79b graft variant SEQ ID NO: 19 (Fab, name in Kabat numbering, V domains shown)
VH: B1 VH
VL: B1 VL with K27Q, E59K
notes: as for B2
binding result: binds

B28: huMA79b graft variant SEQ ID NO: 69 (Fab, name in Kabat numbering, V domains shown)
VH: B1 VH with S30T, I34L, E35S
VL: B1 VL with K27Q
notes: as for B2
binding result: binds

B29: huMA79b graft variant SEQ ID NO: 32 (Fab, name in Kabat numbering, V domains shown)
VH: B1 VH
VL: B1 VL with K27Q, S56R, N57H, E59K, S60R
notes: as for B2
binding result: binds

B30: huMA79b graft variant SEQ ID NO: 20 (Fab, name in Kabat numbering, V domains shown)
VH: B1 VH
VL: B1 VL with K27Q, E97S
notes: Fab on phage; rest as huMA79b graft; also called SPL-5 mutation
binding result: binds

B31: huMA79b graft variant SEQ ID NO: 29 (Fab, name in Kabat numbering, V domains shown)
VH: B1 VH
VL: B1 VL with K27Q, S56G, N57I, E59A, S60R
notes: as for B2
binding result: binds

B32: huMA79b graft variant SEQ ID NO: 59 (Fab, name in Kabat numbering, V domains shown)
VH: B1 VH with T28S, S30K
VL: B1 VL with K27Q
notes: as for B2
binding result: binds

B33: huMA79b graft variant SEQ ID NO: 33 (Fab, name in Kabat numbering, V domains shown)
VH: B1 VH
VL: B1 VL with K27Q, A55S, S56R, N57Y, E59S, S60R
notes: as for B2
binding result: binds

B34: huMA79b graft variant SEQ ID NO: 36 (Fab, name in Kabat numbering, V domains shown)
VH: B1 VH
VL: B1 VL with K27Q, N57K, E59G
notes: as for B2
binding result: binds

B35: huMA79b graft variant SEQ ID NO: 49 (Fab, name in Kabat numbering, V domains shown)
VH: B1 VH
VL: B1 VL with K27Q, E97D
notes: as for B2
binding result: binds

B36: huMA79b graft variant SEQ ID NO: 76 (Fab, name in Kabat numbering, V domains shown)
VH: B1 VH with T28S, S30P, I34L, E35Q
VL: B1 VL with K27Q
notes: as for B2
binding result: binds

B37: huMA79b graft variant SEQ ID NO: 62 (Fab, name in Kabat numbering, V domains shown)
VH: B1 VH with T28P, S30G, S31R, I34V, E35N
VL: B1 VL with K27Q
notes: as for B2
binding result: binds

B38: huMA79b graft variant SEQ ID NO: 25 (Fab, name in Kabat numbering, V domains shown)
VH: B1 VH
VL: B1 VL with K27Q, S56R, N57K, E59K, S60R
notes: as for B2
binding result: binds

B39: huMA79b graft variant SEQ ID NO: 73 (Fab, name in Kabat numbering, V domains shown)
VH: B1 VH with T28S, S30R, E35N
VL: B1 VL with K27Q
notes: as for B2
binding result: binds

B40: huMA79b graft variant SEQ ID NO: 34 (Fab, name in Kabat numbering, V domains shown)
VH: B1 VH
VL: B1 VL with K27Q, A55G, N57K, E59L, S60R
notes: as for B2
binding result: binds

B41: huMA79b graft variant SEQ ID NO: 75 (Fab, name in Kabat numbering, V domains shown)
VH: B1 VH with T28S, S30R, S31R
VL: B1 VL with K27Q
notes: as for B2
binding result: binds

B42: huMA79b graft variant SEQ ID NO: 30 (Fab, name in Kabat numbering, V domains shown)
VH: B1 VH
VL: B1 VL with K27Q, S56R, N57K, E59R
notes: as for B2
binding result: binds

B43: huMA79b graft variant SEQ ID NO: 51 (Fab, name in Kabat numbering, V domains shown)
VH: B1 VH
VL: B1 VL with K27Q, Q93N, Q94N, E97G, T101N
notes: as for B2
binding result: binds

B44: huMA79b graft variant SEQ ID NO: 78 (Fab, name in Kabat numbering, V domains shown)
VH: B1 VH with T28P, S31G
VL: B1 VL with K27Q
notes: as for B2
binding result: binds

B45: huMA79b graft variant SEQ ID NO: 74 (Fab, name in Kabat numbering, V domains shown)
VH: B1 VH with T28S, S30R, S31R, E35N
VL: B1 VL with K27Q
notes: as for B2
binding result: binds

B46: huMA79b graft variant SEQ ID NO: 61 (Fab, name in Kabat numbering, V domains shown)
VH: B1 VH with T28Y, S30T
VL: B1 VL with K27Q
notes: as for B2
binding result: binds

From USRE48558 (Genentech, dated 2021)
